Read-outs that look alike come from different tables or passages of the source. Where no end group is shown, it is not given here. [ ]: non-standard residue; d: D form. Apa = (S)-2-amino-4[(2-amino)pyrimidinyl]methylalanine; Cha = N[C@@H](CC1CCCCC1)C(=O)O
T1: wild-type human PTHR (human, UniProt Q03431 27-593)
T1 construct: whole, on cells; also called PTHR-WT; intact PTHR
T1 sequence (looked up): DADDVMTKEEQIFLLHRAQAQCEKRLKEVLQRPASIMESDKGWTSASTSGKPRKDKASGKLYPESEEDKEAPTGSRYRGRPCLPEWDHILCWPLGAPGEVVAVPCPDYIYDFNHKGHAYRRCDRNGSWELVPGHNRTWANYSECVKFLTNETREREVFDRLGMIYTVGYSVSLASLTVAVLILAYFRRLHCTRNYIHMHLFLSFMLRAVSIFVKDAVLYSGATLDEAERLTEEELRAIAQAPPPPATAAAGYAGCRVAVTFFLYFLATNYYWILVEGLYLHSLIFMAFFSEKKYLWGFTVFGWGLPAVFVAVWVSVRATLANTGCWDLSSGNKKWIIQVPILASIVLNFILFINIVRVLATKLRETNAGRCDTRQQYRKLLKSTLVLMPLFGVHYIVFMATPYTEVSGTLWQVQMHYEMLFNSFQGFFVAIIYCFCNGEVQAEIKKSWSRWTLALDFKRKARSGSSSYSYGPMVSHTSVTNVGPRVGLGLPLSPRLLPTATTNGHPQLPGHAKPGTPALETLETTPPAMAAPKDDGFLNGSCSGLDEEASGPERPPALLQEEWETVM

T2: rat PTHR endogenously expressed in ROS 17/2.8 cells (rat, UniProt P25961 27-591)
T2 construct: whole, on cells; also called endogenous PTHR; PTHR in ROS 17/2.8 cells
T2 sequence (looked up): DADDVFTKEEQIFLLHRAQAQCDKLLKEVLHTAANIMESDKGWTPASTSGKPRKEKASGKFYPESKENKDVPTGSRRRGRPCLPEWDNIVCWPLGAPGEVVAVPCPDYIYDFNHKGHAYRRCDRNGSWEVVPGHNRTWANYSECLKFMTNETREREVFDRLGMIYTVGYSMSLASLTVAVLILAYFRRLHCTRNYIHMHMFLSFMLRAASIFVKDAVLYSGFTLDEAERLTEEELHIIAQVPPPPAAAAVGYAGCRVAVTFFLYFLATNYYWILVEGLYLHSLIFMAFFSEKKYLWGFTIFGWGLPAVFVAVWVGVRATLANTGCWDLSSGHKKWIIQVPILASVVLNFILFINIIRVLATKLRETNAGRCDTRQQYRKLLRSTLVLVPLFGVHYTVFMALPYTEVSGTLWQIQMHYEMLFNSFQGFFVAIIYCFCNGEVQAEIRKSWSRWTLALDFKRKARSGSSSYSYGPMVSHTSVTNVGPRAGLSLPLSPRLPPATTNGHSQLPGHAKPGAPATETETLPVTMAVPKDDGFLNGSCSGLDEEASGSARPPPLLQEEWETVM


Legend:
wild-type human PTHR [1] = molecular target: T1, wild-type human PTHR; assay: competition binding, HKRK-B7 cells, 125I-PTH(1-34) tracer
PTHR-delNt (human) = PTHR-delNt (human) (UniProt Q03431); assay: competition binding, COS-7 membranes, 125I-[Aib1,3,M]PTH(1-15) tracer
wild-type human PTHR [2] = molecular target: T1, wild-type human PTHR; assay: competition binding, HKRK-B7 cells, 125I-PTH(1-34) tracer; remark: listed apart in the source
How it was run: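 Intact HKRK-B7 cells stably expressing hPTHR incubated 4 h at 15° C with ¹²⁵I-PTH(1-34) tracer and unlabeled peptide (3×10⁻⁹ to 1×10⁻⁵ M). Nonspecific binding defined with 1×10⁻⁶ M PTH(1-31)NH₂. Bound activity counted after lysis and expressed as % specific binding without competitor; values in nM, mean ± s.e.m.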

[3] = molecular target: T2, rat PTHR endogenously expressed in ROS …; assay: competition binding, ROS 17/2.8 cells, 125I-PTH(1-34) tracer
Description: Receptor binding—Binding to the wild-type human PTHR in intact HKRK-B7 cells and ROS 17/2.8 cells was assessed using ¹²⁵I-PTH(1-34) as a tracer radioligand, as described (Shimizu, M., (2001) Endocrinology 142:3068-3074). In brief, the cells in 24-well plates (about 500,000 cells per well) were incubated in binding buffer containing radioligand (about 100,000 cpm per well) with or without unlabeled peptide ligand (3×10⁻⁹ to 1×10⁻⁵ M) for four hours at 15° C. The binding mixture was then removed by aspiration, the cells were rinsed three times with binding buffer, lysed in 1 M NaOH, and the entire lysate was counted for gamma-irradiation in a gamma counter. Binding to PTHR-delNt in COS-7 cell membranes was assessed in 96-well, vacuum filtration plates (Multiscreen-Durapore HV, […], Millipore Corp., Millford, Mass.) using ¹²⁵I-[Aib^{1,3},M]PTH(1-15)NH₂ as a tracer radioligand, as described (Dean, T., (2006) Mol Endocrinol 20:931-942). In brief, cell membranes (20 μg/well) were incubated in membrane binding buffer containing radioligand (30,000 cpm/well) with or without unlabeled peptide ligand (3×10⁻⁹ to 1×10⁻⁵ M) for 90 minutes at 21° C. The plates were then subject to rapid vacuum filtration, the filters were washed once with buffer, detached from the plate and counted for gamma-irradiation in a gamma counter. Non-specific binding was defined as the binding observed in the presence of 1×10⁻⁶ M PTH(1-31)NH₂ for HKRK-B7 and ROS 17/2.8 cells, and 1×10⁻⁶ M [Aib^{1,3},M]PTH(1-15)NH₂ for PTHR-delNt. Specifically bound radioactivity was calculated as a percentage of the radioactivity specifically bound in the absence of competing ligand.
Effects on cAMP and IP signaling—Selected analogs of [Ala¹,Arg¹⁹]hPTH(1-31)NH₂ with substitutions that markedly impaired binding to HKRK-B7 cells were assessed for their capacity to bind to the PTHR in ROS 17/2.8 cells and to stimulate cAMP-signaling responses in these cells. These bone-derived cells endogenously express the rat PTHR at a more physiological level than is found in HKRK-B7 cells (approximately 80,000 PTHRs per cell vs. 950,000 PTHRs per cell) and, have generally been found (data not shown) to yield closer correlations between PTH analog binding affinity and cAMP-signaling potency than do HKRK-B7 cells, presumably due to their lower PTHR expression level.

[4] = molecular target: T2, rat PTHR endogenously expressed in ROS …; assay: cell-based or functional assay
wild-type human PTHR [5] = molecular target: T1, wild-type human PTHR; assay: competition binding, HKRK-B7 cells, 125I-PTH(1-34) tracer

Row | fold reduction in binding affinity vs [Ala^1,Arg^19]PTH(1-31)NH2 (wild-type human PTHR [1]) [fold] | fold reduction in binding vs [Ala^1,Arg^19]PTH(1-31)NH2 (wild-type human PTHR [1]) [fold] | IC50 (PTHR-delNt (human)) [nM] | fold change in binding affinity vs [Ala^1,Arg^19]PTH(1-31)NH2 (PTHR-delNt (human)) [fold] | IC50 (wild-type human PTHR [2]) [nM] | IC50 [3] [nM] | cAMP EC50, ROS 17/2.8 cells [4] [nM] | fold reduction in binding affinity vs [Ala^1,Arg^19]PTH(1-31)NH2 (PTHR-delNt (human)) [fold] | fold difference of IC50 from PTH(1-31)NH2 (PTHR-delNt (human)) [fold] | IC50 (wild-type human PTHR [5]) [nM] | Binder
1 | 14 | ~12 | 867 | < 3 | 546 | 19 | 0.82 | – | – | – | AVSEIQLMHNLGKHLNSMRRVE[Cha]LRKKLQDV-NH2 (N-terminus assumed; SMILES CC[C@H](C)[C@H](NC(=O)[C@H](CCC(=O)O)NC(=O)[C@H](CO)NC(=O)[C@@H](NC(=O)[C@H](C)N)C(C)C)C(=O)N[C@@H](CCC(N)=O)C(=O)N[C@@H](CC(C)C)C(=O)N[C@@H](CCSC)C(=O)N[C@@H](Cc1c[nH]cn1)C(=O)N[C@@H](CC(N)=O)C(=O)N[C@@H](CC(C)C)C(=O)NCC(=O)N[C@@H](CCCCN)C(=O)N[C@@H](Cc1c[nH]cn1)C(=O)N[C@@H](CC(C)C)C(=O)N[C@@H](CC(N)=O)C(=O)N[C@@H](CO)C(=O)N[C@@H](CCSC)C(=O)N[C@@H](CCCNC(=N)N)C(=O)N[C@@H](CCCNC(=N)N)C(=O)N[C@H](C(=O)N[C@@H](CCC(=O)O)C(=O)N[C@@H](CC1CCCCC1)C(=O)N[C@@H](CC(C)C)C(=O)N[C@@H](CCCNC(=N)N)C(=O)N[C@@H](CCCCN)C(=O)N[C@@H](CCCCN)C(=O)N[C@@H](CC(C)C)C(=O)N[C@@H](CCC(N)=O)C(=O)N[C@@H](CC(=O)O)C(=O)N[C@H](C(N)=O)C(C)C)C(C)C) [[Ala^1,Arg^19]hPTH(1-31)NH2 Trp^23→Cha]
2 | ≥ 150 | – | 1040 | – | > 10000 | 29000 | 250 | < 3 | – | – | AVSEIQLMHNLGKHLNSMRRVEWERKKLQDV-NH2 [[Ala^1,Arg^19]hPTH(1-31)NH2 Leu^24→Glu]
3 | – | – | 5740 | – | – | – | – | – | < 4 | > 10000 | SVSEIQLMHNLGKHLNSME[Apa]VEWLRKKLQDV-NH2 [PTH(1-31)NH2 Arg^20→Apa]
